From patent US20250298032A1 (INSTITUTE FOR RESEARCH IN BIOMEDICINE, published 2025)
Each block holds one binder with its values, some of them ahead of it.

Legend:
CXCL13 N-loop peptide = biological target: T1, CXCL13 N-loop peptide (human, biotin-Ahx at the N-terminus; amidated at the C-terminus); test: ELISA, biotinylated CXCL13 N-loop peptide on neutravidin plate, anti-human IgG-HRP, OD450 nm
T1 construct: Synthetic peptide, captured on Neutravidin-coated ELISA plates
T1 peptide: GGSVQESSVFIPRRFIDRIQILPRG
Method: (§1) To evaluate the antibodies' binding to chemokine peptides, 96-well plates (ThermoFisher, 442404) were coated with 50 μl per well of a 2 μg/ml Neutravidin (Life Technologies, 31000) solution in PBS, overnight at room temperature. Plates were washed 4 times with washing buffer (PBS+0.05% Tween-20 [Sigma-Aldrich]) and incubated with 50 μl per well of a 50 nM biotinylated peptide solution in PBS for 1 h at room temperature. After washing 4 times with washing buffer, plates were incubated with 200 μl per well of blocking buffer (PBS+2% BSA+0.05% Tween-20) for 2 h at room temperature. Plates were then washed 4 times with washing buffer, and serial dilutions of monoclonal antibodies or plasma were added in PBS +0.05% Tween-20 and incubated for 1 h at room temperature. To screen for the presence of anti-chemokine IgGs, plasma samples were assayed (unless otherwise stated) at 1:50 starting dilution followed by 3 fourfold serial dilutions (1:200, 1:800, 1:3200). Monoclonal antibodies were tested at 5 μg/ml starting concentration followed by 11 threefold serial dilutions. Plates were subsequently washed 4 times with washing buffer and incubated with anti-human IgG secondary antibody conjugated to horseradish peroxidase (HRP) (GE Healthcare, NA933) at a 1:5000 dilution in PBS+0.05% Tween-20. Finally, after washing 4 times with washing buffer, plates were developed by the addition of 50 μl per well of the HRP substrate TMB (ThermoFisher, 34021) for 9 min. The developing reaction was stopped with 50 μl per well of a 1 M H₂SO₄ solution, and absorbance was measured at 450 nm with an ELISA microplate reader (BioTek) with Gen5 software. A positive control (broadly reactive plasma from donor CLM70) and a negative control (uninfected participant) samples were included in each experiment. The Area Under the Curve (AUC) was obtained from two independent experiments and plotted with GraphPad Prism.

CXCL16 N-loop peptide = biological target: T2, CXCL16 N-loop peptide (human, biotin-Ahx at the N-terminus; amidated at the C-terminus); test: ELISA, biotinylated CXCL16 N-loop peptide on neutravidin plate, anti-human IgG-HRP, OD450 nm
T2 construct: Synthetic peptide, captured on Neutravidin-coated ELISA plates
T2 peptide: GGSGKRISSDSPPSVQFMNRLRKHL
Method: as §1

CCL20 N-loop peptide = biological target: T3, CCL20 N-loop peptide (human, biotin-Ahx at the N-terminus; amidated at the C-terminus); test: ELISA, biotinylated CCL20 N-loop peptide on neutravidin plate, anti-human IgG-HRP, OD450 nm
T3 construct: Synthetic peptide, captured on Neutravidin-coated ELISA plates
T3 peptide: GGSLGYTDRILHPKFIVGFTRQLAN
Method: as §1, with “Plates were subsequently washed 4 times with washing buffer and incubated with anti-human IgG secondary antibody conjugated to horseradish peroxidase (HRP) (GE Healthcare, NA933) at a 1:5000 dilution in PBS+0.05% Tween-20. Finally, after washing 4 times with washing buffer, plates were developed by the addition of 50 μl per well of the HRP substrate TMB (ThermoFisher, 34021) for 9 min.” left out, “A positive control (broadly reactive plasma from donor CLM70) and a negative control (uninfected participant) samples were included in each experiment. The Area Under the Curve (AUC) was obtained from two independent experiments and plotted with GraphPad Prism.” left out

B2: aCXCL16.001 (antibody, human IgG1, V domains shown)
VH: EVQLVESGGGLVKPGESLTLSCVASGYPFANAWMSWVRQAPGKGLEWVGRIKTKSEGETTDYAPLVRGRFTISRDDSKTTVFLQMNSLKTEDTGMYYCTTVFFWGRGTLVTVSS
VL: SYELTQPPSVSVSPGQTARITCSGDALSQQYLFWHQQRPGQAPKVVISKDTERPSGIPERFSGSISGTTGTLTISGVQTEDEADYYCHSTDISDSYWVFGGGTKLTVL
notes: also called anti-CXCL16 N-loop antibody
- EC50 (read off the curve) (CXCL16 N-loop peptide): ~0.1 µg/mL

B3: aCCL20.001 (antibody, V domains shown)
VH: QVQLVQSGAEVKKPGASVKISCKASGYTFTNHYMHWVRQAPGVGLEWMGIVNPSGGNTSYARNFQGRIIMTRDMSTRTIYMELGSLRSEDTAVYYCARDGSHYDDDGGYYGDAFDIWGQGTMVTVSS
VL: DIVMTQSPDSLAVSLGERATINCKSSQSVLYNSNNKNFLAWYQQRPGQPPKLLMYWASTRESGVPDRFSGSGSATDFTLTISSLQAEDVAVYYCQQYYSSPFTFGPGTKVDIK
notes: also called anti-CCL20 N-loop antibody
- EC50 (read off the curve) (CCL20 N-loop peptide): ~0.04 µg/mL

B4: aCXCL16.003 (antibody, human IgG1, V domains shown)
VH: EVQLVQSGAEVKKPGESLKISCKGSGYSFTSYWIGWVRQMPGKGLEWMGIIYPGDSDTRYSPSFQGQVTISADKSISTAYLQWSSLKASDTAMYYCARLHGDLYYFDYWGQGTLVTVSS
VL: QSVLTQEASVSGTVGQKVTLSCTGNSNNVGSYAVGWYQQISHGAPKTVMFGNSLPSGIPDRFSGSKSGTTASLTISGLQPEDEADYYCSTWDYSLSAQVFGGGTKLTVL
notes: as for B2
- EC50 (read off the curve) (CXCL16 N-loop peptide): ~0.2 µg/mL

Continued, values first:

- binding result (CXCL13 N-loop peptide): binds
B1: aCXCL13.003 (antibody, V domains shown)
VH: QVQLQEWGAGLLKPSETLSLTCAVYGGSFSGYYWSWIRQPPGKGLEWIGEINHSGSTNYNPSLKSRVTISVDTSKNQFSLKLSSVTAADTAVYYCARAGRSYGDYGAFDIWGQGTMVTVSS
VL: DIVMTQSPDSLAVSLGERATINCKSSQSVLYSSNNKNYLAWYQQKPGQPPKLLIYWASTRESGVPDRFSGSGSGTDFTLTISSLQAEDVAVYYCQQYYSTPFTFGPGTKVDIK
notes: also called anti-CXCL13 N-loop antibody

- binding result (CXCL16 N-loop peptide): binds
B5: aCXCL16.002 (antibody, human IgG1, V domains shown)
VH: EVQLVESGGGLSQPGWSLRLSCAASGLTVTRNYMSWVRQAPGKGLEWVSTLWTDGQKFYADSVKGRFTVSRDSYTNTLNLEMSGLRAEDTAVYFCTRDKVVPVRITPDYHYYGMDVWGQGTTVTVSS
VL: DIQLTQSPSFLSASVGDRVTITCRASQGVRRYLAWYQQKPGKAPKFLIYGASSLHTGVPSRFSGGGSDTEFTLTISNLQTEDFATYYCQQLDTYPLTFGGGTKVEIK
notes: as for B2
